Results reported in patent US20230405046A1.

Target: HLA-A*01:01 presenting KRAS-Q61H 55-64 (…) (human)
Experiment: cell-based or functional assay

Row | minimal recognized peptide concentration (functional avidity, IFNγ ELISPOT) [nM] | Binder
1 | 10 | TCRCD8-EL8-LM7 #1 (TCR) TCR alpha: AQKITQTQPGMFVQEKEAVTLDCTYDTSDPSYGLFWYKQPSSGEMIFLIYQGSYDQQNATEGRYSLNFQKARKSANLVISASQLGDSAMYFCAMREGQDSSYKLIFGSGTRLLVRPDIQNPDPAVYQLRDS TCR beta: MGTRLLCCVAFCLLGAGPVDSGVTQTPKHLITATGQRVTLRCSPRSGDLSVYWYQQSLDQGLQFLIQYYNGEERAKGNILERFSAQQFPDLHSELNLSSLELGDSALYFCASSVLGPNTEAFFGQGTRLTVVEDLNKVFPPEVAVFE
2 | 100 | TCRCD8-EL8-LM7 #8 (TCR) TCR alpha: AQKITQTQPGMFVQEKEAVTLDCTYDTSDPSYGLFWYKQPSSGEMIFLIYQGSYDQQNATEGRYSLNFQKARKSANLVISASQLGDSAMYFCAMREIRDSSYKLIFGSGTRLLVRPDIQNPDPAVYQLRDS TCR beta: MGTRLLCCVAFCLLGAGPVDSGVTQTPKHLITATGQRVTLRCSPRSGDLSVYWYQQSLDQGLQFLIQHYNGEERAKGNILERFSAQQFPDLHSELNLSSLELGDSALYFCASSPAGPNTEAFFGQGTRLTVVEDLNKVFPPEVAVFE
3 | 10 | TCRCD8-EL8-LM7 #4 (TCR) TCR alpha: AQKVTQAQTEISVVEKEDVTLDCVYETRDTTYYLFWYKQPPSGELVFLIRRNSFDEQNEISGRYSWNFQKSTSSFNFTITASQVVDSAVYFCALSNAGGTSYGKLTFGQGTILTVHPNIQNPDPAVYQLRDS TCR beta: EAQVTQNPRYLITVTGKKLTVTCSQNMNHEYMSWYRQDPGLGLRQIYYSMNVEVTDKGDVPEGYKVSRKEKRNFPLILESPSPNQTSLYFCASSRRLPPPYGYTFGSGTRLTVVEDLNKVFPPEVAVFE
4 | 10 | TCRCD8-EL8-LM7 #7 (TCR) TCR alpha: AQKVTQAQTEISVVEKEDVTLDCVYETRDTTYYLFWYKQPPSGELVFLIRRNSFDEQNEISGRYSWNFQKSTSSFNFTITASQVVDSAVYFCALSESSNTGKLIFGQGTTLQVKPDIQNPDPAVYQLRDS TCR beta: EAQVTQNPRYLITVTGKKLTVTCSQNMNHEYMSWYRQDPGLGLRQIYYSMNVEVTDKGDVPEGYKVSRKEKRNFPLILESPSPNQTSLYFCASSRREPPPYGYTFGSGTRLTVVEDLNKVFPPEVAVFE
